In US20230285583A1, “LIQUID FORMULATION OF LONG-ACTING CONJUGATE OF GLUCAGON, GLP-1, AND GIP TRIGONAL AGONIST” (HANMI PHARM, CO., LTD., priority 2020, published 2023):
Bridge positions count the residues as written; N and C are the ends. Square brackets hold non-standard residues; d marks the D form. Ends that are not written are not given here. * marks the point of attachment. Acetyl(2-(4-imidazolyl)) = O=C(Cc1c[nH]cn1)*; Aib = CC(C)(N)C(=O)O

Biological target: human GLP-1 receptor (human, UniProt P43220 24-463)
Assay: cell-based or functional assay

| Binder | In Vitro Activity Compared to Native Peptide (%) vs. GLP-1 (relative titer from cAMP EC50) |
| --- | --- |
| [Acetyl(2-(4-imidazolyl))][Aib]QGTFTSDYSKYLDEKRQKEFVNWLLAQKC (bridge 16-20; not fully specified (bridges)) [trigonal agonist of SEQ ID NO: 39] | 5.7% |
| H[Aib]QGTFTSDYSKYLDEKACKEFVQWLLAQ (bridge 16-20; not fully specified (bridges)) [trigonal agonist of SEQ ID NO: 4] | 135% |
| H[Aib]EGTFTSDYSIAMDEIHQKDFVNWLLAQKC (lactam 16-20) [trigonal agonist of SEQ ID NO: 34] | 41.5% |
| Y[Aib]QGTFTSDYSKALDEKAAKEFVQWLLDQHPSSGQPPPSC (bridge 16-20; not fully specified (bridges)) [trigonal agonist of SEQ ID NO: 44] | 42.2% |
| H[Aib]QGTFTSDYSKYLCEKRQKEFVQWLLNGGPSSGAPPPSG (bridge 16-20; not fully specified (bridges)) [trigonal agonist of SEQ ID NO: 7] | 37.4% |
| Y[Aib]QGTFTSDYSKYLDEKRAKEFVQWLLDCHPSSGQPPPS (bridge 16-20; not fully specified (bridges); ends not checked) [trigonal agonist of SEQ ID NO: 41] | 10.5% |
| Y[Aib]QGTFTSDYSKYLDEKRAKEFVQWLLDHHCSSGQPPPS (bridge 16-20; not fully specified (bridges)) [trigonal agonist of SEQ ID NO: 10] | 12.6% |
| H[Aib]QGTFTSDYSKYLDEKRQKEFVNWLLAQKC (bridge 16-20; not fully specified (bridges)) [trigonal agonist of SEQ ID NO: 6] | 19.1% |
| Y[Aib]QGTFTSDYSKALDEKAAKDFVNWLLDQHPSSGQPPPSC (bridge 16-20; not fully specified (bridges)) [trigonal agonist of SEQ ID NO: 46] | 23.3% |
| [Acetyl(2-(4-imidazolyl))][Aib]QGTFTSDYSKYLDEKRQKEFVNWLLAQC (bridge 16-20; not fully specified (bridges)) [trigonal agonist of SEQ ID NO: 37] | 28.4% |
| Y[Aib]QGTFTSDYSKYLDECRAKEFVQWLLDHHPSSGQPPPS (bridge 16-20; not fully specified (bridges)) [trigonal agonist of SEQ ID NO: 1] | 17.8% |
| Y[Aib]QGTFTSDYSKALDEKAAKEFVNWLLDHHPSSGQPPPSC (bridge 16-20; not fully specified (bridges)) [trigonal agonist of SEQ ID NO: 42] | 28.1% |
| Y[Aib]QGTFTSDYSKYLDEKRAKEFVQWLLDHCPSSGQPPPS (bridge 16-20; not fully specified (bridges); ends not checked) [trigonal agonist of SEQ ID NO: 40] | 34.4% |
| Y[Aib]QGTFTSDYSKALDEKAAKDFVNWLLDHHPSSGQPPPSC (bridge 16-20; not fully specified (bridges)) [trigonal agonist of SEQ ID NO: 43] | 20.9% |
| {Acetyl(2-(4-imidazolyl))}-[Aib]EGTFTSDYSIAMDEIHQKDFVNWLLAQC (lactam 15-19) [trigonal agonist of SEQ ID NO: 36] | 47.3% |
| H[Aib]QGTFTSDYSKYLDECRQKEFVQWLLNGGPSSGAPPPSG (bridge 16-20; not fully specified (bridges)) [trigonal agonist of SEQ ID NO: 8] | 236% |
| [Acetyl(2-(4-imidazolyl))][Aib]EGTFTSDYSIAMDEIHQKDFVDWLLAEKC (bridge 16-20; not fully specified (bridges)) [trigonal agonist of SEQ ID NO: 38] | 31.9% |
| Y[Aib]QGTFTSDYSKYLDEKRAKEFVQWLLDHHPSSGQPPPSC (lactam 16-20) [trigonal agonist of SEQ ID NO: 9] | 33.9% |
| Y[Aib]QGTFTSDYSKALDEKAAKEFVNWLLDQHPSSGQPPPSC (bridge 16-20; not fully specified (bridges)) [trigonal agonist of SEQ ID NO: 45] | 23.2% |
| H[Aib]EGTFTSDYSIAMDEIHQKDFVDWLLAEKC (bridge 16-20; not fully specified (bridges)) [trigonal agonist of SEQ ID NO: 35] | 8.1% |
| H[Aib]QGTFTSDYSKYLDEKACKDFVQWLLDGGPSSGAPPPS (lactam 16-20) [trigonal agonist of SEQ ID NO: 5] | 151% |

Biological target: human GCG receptor (human, UniProt P47871 26-477)
Assay: cell-based or functional assay

human GCG receptor, sequence (P47871 26-477): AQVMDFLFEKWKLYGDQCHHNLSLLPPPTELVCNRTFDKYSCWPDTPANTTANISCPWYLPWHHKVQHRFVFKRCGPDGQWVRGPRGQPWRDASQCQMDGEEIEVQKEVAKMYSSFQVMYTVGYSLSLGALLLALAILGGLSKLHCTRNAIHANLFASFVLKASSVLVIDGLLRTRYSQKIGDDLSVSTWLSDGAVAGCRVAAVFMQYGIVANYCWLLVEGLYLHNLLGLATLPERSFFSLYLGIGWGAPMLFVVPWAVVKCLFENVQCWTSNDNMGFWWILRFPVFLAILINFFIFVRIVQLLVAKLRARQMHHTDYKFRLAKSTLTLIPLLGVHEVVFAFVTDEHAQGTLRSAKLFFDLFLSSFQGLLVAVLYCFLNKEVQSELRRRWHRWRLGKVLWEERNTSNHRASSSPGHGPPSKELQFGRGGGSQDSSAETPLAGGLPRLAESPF

| Binder | In Vitro Activity Compared to Native Peptide (%) vs. Glucagon (relative titer from cAMP EC50) |
| --- | --- |
| [Acetyl(2-(4-imidazolyl))][Aib]QGTFTSDYSKYLDEKRQKEFVNWLLAQKC (bridge 16-20; not fully specified (bridges)) [trigonal agonist of SEQ ID NO: 39] | 0.3% |
| H[Aib]QGTFTSDYSKYLDEKACKEFVQWLLAQ (bridge 16-20; not fully specified (bridges)) [trigonal agonist of SEQ ID NO: 4] | 2.2% |
| H[Aib]EGTFTSDYSIAMDEIHQKDFVNWLLAQKC (lactam 16-20) [trigonal agonist of SEQ ID NO: 34] | 4.9% |
| Y[Aib]QGTFTSDYSKALDEKAAKEFVQWLLDQHPSSGQPPPSC (bridge 16-20; not fully specified (bridges)) [trigonal agonist of SEQ ID NO: 44] | 12.7% |
| H[Aib]QGTFTSDYSKYLCEKRQKEFVQWLLNGGPSSGAPPPSG (bridge 16-20; not fully specified (bridges)) [trigonal agonist of SEQ ID NO: 7] | 0.39% |
| Y[Aib]QGTFTSDYSKYLDEKRAKEFVQWLLDCHPSSGQPPPS (bridge 16-20; not fully specified (bridges); ends not checked) [trigonal agonist of SEQ ID NO: 41] | 62.8% |
| Y[Aib]QGTFTSDYSKYLDEKRAKEFVQWLLDHHCSSGQPPPS (bridge 16-20; not fully specified (bridges)) [trigonal agonist of SEQ ID NO: 10] | 88.4% |
| H[Aib]QGTFTSDYSKYLDEKRQKEFVNWLLAQKC (bridge 16-20; not fully specified (bridges)) [trigonal agonist of SEQ ID NO: 6] | 0.92% |
| Y[Aib]QGTFTSDYSKALDEKAAKDFVNWLLDQHPSSGQPPPSC (bridge 16-20; not fully specified (bridges)) [trigonal agonist of SEQ ID NO: 46] | 29.5% |
| [Acetyl(2-(4-imidazolyl))][Aib]QGTFTSDYSKYLDEKRQKEFVNWLLAQC (bridge 16-20; not fully specified (bridges)) [trigonal agonist of SEQ ID NO: 37] | 0.4% |
| Y[Aib]QGTFTSDYSKYLDECRAKEFVQWLLDHHPSSGQPPPS (bridge 16-20; not fully specified (bridges)) [trigonal agonist of SEQ ID NO: 1] | 267% |
| Y[Aib]QGTFTSDYSKALDEKAAKEFVNWLLDHHPSSGQPPPSC (bridge 16-20; not fully specified (bridges)) [trigonal agonist of SEQ ID NO: 42] | 8.2% |
| Y[Aib]QGTFTSDYSKYLDEKRAKEFVQWLLDHCPSSGQPPPS (bridge 16-20; not fully specified (bridges); ends not checked) [trigonal agonist of SEQ ID NO: 40] | 195% |
| Y[Aib]QGTFTSDYSKALDEKAAKDFVNWLLDHHPSSGQPPPSC (bridge 16-20; not fully specified (bridges)) [trigonal agonist of SEQ ID NO: 43] | 14.9% |
| {Acetyl(2-(4-imidazolyl))}-[Aib]EGTFTSDYSIAMDEIHQKDFVNWLLAQC (lactam 15-19) [trigonal agonist of SEQ ID NO: 36] | 1.3% |
| H[Aib]QGTFTSDYSKYLDECRQKEFVQWLLNGGPSSGAPPPSG (bridge 16-20; not fully specified (bridges)) [trigonal agonist of SEQ ID NO: 8] | 6.21% |
| [Acetyl(2-(4-imidazolyl))][Aib]EGTFTSDYSIAMDEIHQKDFVDWLLAEKC (bridge 16-20; not fully specified (bridges)) [trigonal agonist of SEQ ID NO: 38] | 16.8% |
| Y[Aib]QGTFTSDYSKYLDEKRAKEFVQWLLDHHPSSGQPPPSC (lactam 16-20) [trigonal agonist of SEQ ID NO: 9] | 206% |
| Y[Aib]QGTFTSDYSKALDEKAAKEFVNWLLDQHPSSGQPPPSC (bridge 16-20; not fully specified (bridges)) [trigonal agonist of SEQ ID NO: 45] | 13.9% |
| H[Aib]EGTFTSDYSIAMDEIHQKDFVDWLLAEKC (bridge 16-20; not fully specified (bridges)) [trigonal agonist of SEQ ID NO: 35] | 0% |
| H[Aib]QGTFTSDYSKYLDEKACKDFVQWLLDGGPSSGAPPPS (lactam 16-20) [trigonal agonist of SEQ ID NO: 5] | 1.7% |

Biological target: T1, human GIP receptor (human, UniProt P48546 22-466)
T1 sequence (looked up): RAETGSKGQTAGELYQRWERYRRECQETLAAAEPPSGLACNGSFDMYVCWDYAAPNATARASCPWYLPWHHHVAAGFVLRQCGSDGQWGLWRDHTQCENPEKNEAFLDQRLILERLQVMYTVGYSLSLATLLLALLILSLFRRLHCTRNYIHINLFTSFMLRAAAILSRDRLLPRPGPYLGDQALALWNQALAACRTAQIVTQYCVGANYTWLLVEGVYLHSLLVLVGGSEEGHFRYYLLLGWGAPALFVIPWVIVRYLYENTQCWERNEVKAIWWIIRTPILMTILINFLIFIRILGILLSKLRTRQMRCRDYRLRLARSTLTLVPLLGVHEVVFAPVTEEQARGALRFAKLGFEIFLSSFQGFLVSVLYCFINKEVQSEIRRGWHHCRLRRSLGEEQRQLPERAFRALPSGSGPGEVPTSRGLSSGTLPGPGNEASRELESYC
Assay: cell-based or functional assay

| Binder | In Vitro Activity Compared to Native Peptide (%) vs. GIP (relative titer from cAMP EC50) |
| --- | --- |
| [Acetyl(2-(4-imidazolyl))][Aib]QGTFTSDYSKYLDEKRQKEFVNWLLAQKC (bridge 16-20; not fully specified (bridges)) [trigonal agonist of SEQ ID NO: 39] | 0.7% |
| H[Aib]QGTFTSDYSKYLDEKACKEFVQWLLAQ (bridge 16-20; not fully specified (bridges)) [trigonal agonist of SEQ ID NO: 4] | 2.4% |
| H[Aib]EGTFTSDYSIAMDEIHQKDFVNWLLAQKC (lactam 16-20) [trigonal agonist of SEQ ID NO: 34] | 1.4% |
| Y[Aib]QGTFTSDYSKALDEKAAKEFVQWLLDQHPSSGQPPPSC (bridge 16-20; not fully specified (bridges)) [trigonal agonist of SEQ ID NO: 44] | 118% |
| H[Aib]QGTFTSDYSKYLCEKRQKEFVQWLLNGGPSSGAPPPSG (bridge 16-20; not fully specified (bridges)) [trigonal agonist of SEQ ID NO: 7] | 0.2% |
| Y[Aib]QGTFTSDYSKYLDEKRAKEFVQWLLDCHPSSGQPPPS (bridge 16-20; not fully specified (bridges); ends not checked) [trigonal agonist of SEQ ID NO: 41] | 2.6% |
| Y[Aib]QGTFTSDYSKYLDEKRAKEFVQWLLDHHCSSGQPPPS (bridge 16-20; not fully specified (bridges)) [trigonal agonist of SEQ ID NO: 10] | 3.7% |
| H[Aib]QGTFTSDYSKYLDEKRQKEFVNWLLAQKC (bridge 16-20; not fully specified (bridges)) [trigonal agonist of SEQ ID NO: 6] | 0.6% |
| Y[Aib]QGTFTSDYSKALDEKAAKDFVNWLLDQHPSSGQPPPSC (bridge 16-20; not fully specified (bridges)) [trigonal agonist of SEQ ID NO: 46] | 58% |
| [Acetyl(2-(4-imidazolyl))][Aib]QGTFTSDYSKYLDEKRQKEFVNWLLAQC (bridge 16-20; not fully specified (bridges)) [trigonal agonist of SEQ ID NO: 37] | 0.2% |
| Y[Aib]QGTFTSDYSKYLDECRAKEFVQWLLDHHPSSGQPPPS (bridge 16-20; not fully specified (bridges)) [trigonal agonist of SEQ ID NO: 1] | 22.7% |
| Y[Aib]QGTFTSDYSKALDEKAAKEFVNWLLDHHPSSGQPPPSC (bridge 16-20; not fully specified (bridges)) [trigonal agonist of SEQ ID NO: 42] | 47.1% |
| Y[Aib]QGTFTSDYSKYLDEKRAKEFVQWLLDHCPSSGQPPPS (bridge 16-20; not fully specified (bridges); ends not checked) [trigonal agonist of SEQ ID NO: 40] | 5.2% |
| Y[Aib]QGTFTSDYSKALDEKAAKDFVNWLLDHHPSSGQPPPSC (bridge 16-20; not fully specified (bridges)) [trigonal agonist of SEQ ID NO: 43] | 57.7% |
| {Acetyl(2-(4-imidazolyl))}-[Aib]EGTFTSDYSIAMDEIHQKDFVNWLLAQC (lactam 15-19) [trigonal agonist of SEQ ID NO: 36] | 0.4% |
| H[Aib]QGTFTSDYSKYLDECRQKEFVQWLLNGGPSSGAPPPSG (bridge 16-20; not fully specified (bridges)) [trigonal agonist of SEQ ID NO: 8] | 2.2% |
| [Acetyl(2-(4-imidazolyl))][Aib]EGTFTSDYSIAMDEIHQKDFVDWLLAEKC (bridge 16-20; not fully specified (bridges)) [trigonal agonist of SEQ ID NO: 38] | 0.3% |
| Y[Aib]QGTFTSDYSKYLDEKRAKEFVQWLLDHHPSSGQPPPSC (lactam 16-20) [trigonal agonist of SEQ ID NO: 9] | 7.8% |
| Y[Aib]QGTFTSDYSKALDEKAAKEFVNWLLDQHPSSGQPPPSC (bridge 16-20; not fully specified (bridges)) [trigonal agonist of SEQ ID NO: 45] | 40.1% |
| H[Aib]EGTFTSDYSIAMDEIHQKDFVDWLLAEKC (bridge 16-20; not fully specified (bridges)) [trigonal agonist of SEQ ID NO: 35] | 0.1% |
| H[Aib]QGTFTSDYSKYLDEKACKDFVQWLLDGGPSSGAPPPS (lactam 16-20) [trigonal agonist of SEQ ID NO: 5] | 8.8% |
